This test deals with Phaeodactylum tricornutum diaminopimelate decarboxylase (PtLYSA), amino acids 39-476 (Phaeodactylum tricornutum). Description: SEC.

As to “Phaeodactylum tricornutum diaminopimelate decarboxylase (PtLYSA), amino acids 39-476 (enzyme)”, the stoichiometry N came to 2.

In general, stoichiometry N refers to the number of molecules, sites or subunits per partner or assembly.

Source of the values: paper doi:10.1101/2020.10.01.322594.
